Reference: patent publication US20190070248A1 (BIONTECH, published 2019)
Positions of bridges follow the written chain, without caps; N, C: chain ends. No end group written: not given here. *: point of attachment. Biotin = O=C1N[C@H]2[C@H](CS[C@H]2CCCCC(=O)*)N1

Columns and labels:
[1] = molecular target: T1, TR66 antibody (CD3ε specific antibody, clone TR66); assay: apparent KD, peptide ELISA, biotinylated peptide on streptavidin plate, TR66 titrated, two-site saturation fit
T1 construct: Whole antibody

[2] = molecular target: T1, TR66 antibody (CD3ε specific antibody, …); assay: peptide ELISA, apparent KD against the parental peptide

B1: aCD3-04-006 (WCTRPGDPQC-GGGS-K(Bio)) (peptide)
peptide: WCTRPGDPQCGGGSK(Biotin)
modifications: disulfide 2-10 (inferred)
Kd [1]: 226 nM

B2: aCD3-04-009 (ACTRPGDPYC-GGGS-K(Bio)) (peptide)
peptide: ACTRPGDPYCGGGSK(Biotin)
modifications: disulfide 2-10 (inferred)
Kd [1]: 167 nM

B3: aCD3-04-002 (ACTRPDDPQC-GGGS-K(Bio)) (peptide)
peptide: ACTRPDDPQCGGGSK(Biotin)
modifications: disulfide 2-10 (inferred)
fold lower apparent KD than the parental peptide aCD3 C7C-4 [2]: ~5 fold | Kd [1]: 78 nM

B4: aCD3-04-013 (ACTRPDDPEC-GGGS-K(Bio)) (peptide)
peptide: ACTRPDDPECGGGSK(Biotin)
modifications: disulfide 2-10 (inferred)
notes: also called TR66 mimotope aCD3-04-013
fold lower apparent KD than the parental peptide aCD3 C7C-4 [2]: ~100 fold | Kd [1]: 4 nM

B5: aCD3-04-008 (ACTRPGDPAC-GGGS-K(Bio)) (peptide)
peptide: ACTRPGDPACGGGSK(Biotin)
modifications: disulfide 2-10 (inferred)
Kd [1]: 164 nM

B6: aCD3 C7C-4 (ACTRPGDPQC-GGGS-K(Bio)) (peptide)
peptide: ACTRPGDPQCGGGSK(Biotin)
modifications: disulfide 2-10 (inferred)
notes: On the microarrays the peptide was immobilized covalently through a reactive moiety, not through K(Bio); also called clone 4; parental peptide
Kd [1]: 370 nM

B7: aCD3-04-007 (ACTRPEDPQC-GGGS-K(Bio)) (peptide)
peptide: ACTRPEDPQCGGGSK(Biotin)
modifications: disulfide 2-10 (inferred)
Kd [1]: 299 nM

B8: aCD3-04-014 (ACTRPDDPWC-GGGS-K(Bio)) (peptide)
peptide: ACTRPDDPWCGGGSK(Biotin)
modifications: disulfide 2-10 (inferred)
Kd [1]: 111 nM
